Among the data in paper PMC3469540 are K half (PSC per nucleosome) values, retold here.

The data set concerns PSC (Posterior Sex Combs) (Drosophila). In words: centrifugation (array oligomerization). Conditions: 50% of template pelleted; saturates at 2 PSC per nucleosome; not an affinity; Buffer, salt, pH and temperature of the nucleic acid binding assays not given in the material; EMSA on 0.8% agarose, 0.5X TBE after glutaraldehyde ….

As to 12-nucleosome array, the K half (PSC per nucleosome) was 0.25.
